According to publication PMC9616490:

Columns and labels:
Test in all cases: cryo-EM structure
Details in all cases: remark: other sources report otherwise
[1] = target: T1, human Na-K-2Cl cotransporter-1 (hNKCC1), full-length wild type (human), P55011
T1 chain: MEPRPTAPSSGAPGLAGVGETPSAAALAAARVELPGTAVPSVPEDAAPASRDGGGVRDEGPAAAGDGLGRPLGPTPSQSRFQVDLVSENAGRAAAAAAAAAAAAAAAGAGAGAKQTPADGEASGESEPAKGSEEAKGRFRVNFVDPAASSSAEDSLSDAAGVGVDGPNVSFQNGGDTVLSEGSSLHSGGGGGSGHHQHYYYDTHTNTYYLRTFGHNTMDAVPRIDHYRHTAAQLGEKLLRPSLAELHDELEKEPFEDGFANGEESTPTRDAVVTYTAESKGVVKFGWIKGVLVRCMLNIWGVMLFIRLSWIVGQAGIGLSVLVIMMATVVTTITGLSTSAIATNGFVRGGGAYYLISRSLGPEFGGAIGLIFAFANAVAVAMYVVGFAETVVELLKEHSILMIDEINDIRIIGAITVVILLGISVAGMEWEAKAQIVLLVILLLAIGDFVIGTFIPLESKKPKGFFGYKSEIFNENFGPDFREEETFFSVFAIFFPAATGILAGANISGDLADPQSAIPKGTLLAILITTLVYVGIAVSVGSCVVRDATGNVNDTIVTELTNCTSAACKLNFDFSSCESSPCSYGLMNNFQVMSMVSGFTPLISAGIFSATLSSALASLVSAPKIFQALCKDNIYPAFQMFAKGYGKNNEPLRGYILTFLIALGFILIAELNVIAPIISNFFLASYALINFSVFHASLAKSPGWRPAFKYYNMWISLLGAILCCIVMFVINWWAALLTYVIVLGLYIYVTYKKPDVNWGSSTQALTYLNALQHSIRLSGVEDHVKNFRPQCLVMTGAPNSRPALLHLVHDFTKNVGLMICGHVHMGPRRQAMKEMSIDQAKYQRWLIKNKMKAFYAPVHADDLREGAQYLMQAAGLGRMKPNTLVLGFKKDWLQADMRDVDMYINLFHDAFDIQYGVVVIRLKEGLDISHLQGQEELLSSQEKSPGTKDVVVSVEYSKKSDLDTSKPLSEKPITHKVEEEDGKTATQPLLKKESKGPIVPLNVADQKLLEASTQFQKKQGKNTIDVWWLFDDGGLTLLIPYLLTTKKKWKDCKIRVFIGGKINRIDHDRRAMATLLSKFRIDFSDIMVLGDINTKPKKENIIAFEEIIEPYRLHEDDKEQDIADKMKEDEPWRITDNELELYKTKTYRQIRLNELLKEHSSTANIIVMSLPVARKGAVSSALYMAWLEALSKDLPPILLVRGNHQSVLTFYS

[2] = target: T1, human Na-K-2Cl cotransporter-1 …
[3] = target: T1, human Na-K-2Cl cotransporter-1 …

Measured: stoichiometry N

B1: human Na-K-2Cl cotransporter-1 (hNKCC1), full-length wild type, P55011 1-1212 (natural protein)
chain: MEPRPTAPSSGAPGLAGVGETPSAAALAAARVELPGTAVPSVPEDAAPASRDGGGVRDEGPAAAGDGLGRPLGPTPSQSRFQVDLVSENAGRAAAAAAAAAAAAAAAGAGAGAKQTPADGEASGESEPAKGSEEAKGRFRVNFVDPAASSSAEDSLSDAAGVGVDGPNVSFQNGGDTVLSEGSSLHSGGGGGSGHHQHYYYDTHTNTYYLRTFGHNTMDAVPRIDHYRHTAAQLGEKLLRPSLAELHDELEKEPFEDGFANGEESTPTRDAVVTYTAESKGVVKFGWIKGVLVRCMLNIWGVMLFIRLSWIVGQAGIGLSVLVIMMATVVTTITGLSTSAIATNGFVRGGGAYYLISRSLGPEFGGAIGLIFAFANAVAVAMYVVGFAETVVELLKEHSILMIDEINDIRIIGAITVVILLGISVAGMEWEAKAQIVLLVILLLAIGDFVIGTFIPLESKKPKGFFGYKSEIFNENFGPDFREEETFFSVFAIFFPAATGILAGANISGDLADPQSAIPKGTLLAILITTLVYVGIAVSVGSCVVRDATGNVNDTIVTELTNCTSAACKLNFDFSSCESSPCSYGLMNNFQVMSMVSGFTPLISAGIFSATLSSALASLVSAPKIFQALCKDNIYPAFQMFAKGYGKNNEPLRGYILTFLIALGFILIAELNVIAPIISNFFLASYALINFSVFHASLAKSPGWRPAFKYYNMWISLLGAILCCIVMFVINWWAALLTYVIVLGLYIYVTYKKPDVNWGSSTQALTYLNALQHSIRLSGVEDHVKNFRPQCLVMTGAPNSRPALLHLVHDFTKNVGLMICGHVHMGPRRQAMKEMSIDQAKYQRWLIKNKMKAFYAPVHADDLREGAQYLMQAAGLGRMKPNTLVLGFKKDWLQADMRDVDMYINLFHDAFDIQYGVVVIRLKEGLDISHLQGQEELLSSQEKSPGTKDVVVSVEYSKKSDLDTSKPLSEKPITHKVEEEDGKTATQPLLKKESKGPIVPLNVADQKLLEASTQFQKKQGKNTIDVWWLFDDGGLTLLIPYLLTTKKKWKDCKIRVFIGGKINRIDHDRRAMATLLSKFRIDFSDIMVLGDINTKPKKENIIAFEEIIEPYRLHEDDKEQDIADKMKEDEPWRITDNELELYKTKTYRQIRLNELLKEHSSTANIIVMSLPVARKGAVSSALYMAWLEALSKDLPPILLVRGNHQSVLTFYS
2: [1] | [2] | [3]
